Experimental data as given in paper PMC4992311, “The MarR-like protein PchR (YvmB) regulates expression of genes involved in pulcherriminic acid biosynthesis and in the initiation of sporulation in Bacillus subtilis”.
Each block holds one molecule with its values, some of them ahead of it.

Columns and labels:
[1] = molecular target: T1, YvmB-His6 (PchR) (Bacillus subtilis (BSB1, trp+ 168 derivative?)) (UniProt P40762); experiment: EMSA; settings: apparent Kd; EMSA: 1x = 20 mM Tris pH 8, 100 mM KCl, 0.5 mM DTT, 5 mM MgCl2, 0.05 mg/ml BSA, 0.05 mg/ml poly(dIdC) (from 5x buffer); 50 ng Cy5 DNA in 20 uL; 20 min at 30 C …
T1 sequence: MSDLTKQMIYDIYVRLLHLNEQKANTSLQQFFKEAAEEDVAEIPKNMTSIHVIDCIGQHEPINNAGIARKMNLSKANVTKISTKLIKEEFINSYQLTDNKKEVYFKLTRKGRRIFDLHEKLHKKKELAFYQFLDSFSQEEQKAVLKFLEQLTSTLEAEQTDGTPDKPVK

[2] = molecular target: His-tagged YvmB protein (MarR-like regulator YvmB, renamed PchR) (B. subtilis); experiment: SEC; purified YvmB^His-tag fractionated on a Superdex 200 gel-filtration column; major peak with an apparent molecular mass compared with the 19.2 kDa polypeptide; no effector added
YvmB-His6 (PchR) [3] = molecular target: T2, YvmB-His6 (PchR) (Bacillus subtilis (BSB1, trp+ 168 …, UniProt P40762 1-169)); experiment: EMSA; one complex; apparent Kd; EMSA: 1x = 20 mM Tris pH 8, 100 mM KCl, 0.5 mM DTT, 5 mM MgCl2, 0.05 mg/ml BSA, 0.05 mg/ml poly(dIdC) (from 5x buffer); 50 ng Cy5 DNA in 20 uL; 20 min at 30 C; settings: protein: recombinant; tags: C-terminal His6; chain copies: 2; label: 5' Cy5
T2 sequence: T1 sequence

YvmB-His6 (PchR) [4] = molecular target: T2, YvmB-His6 (PchR); experiment: EMSA; two complexes; EMSA: 1x = 20 mM Tris pH 8, 100 mM KCl, 0.5 mM DTT, 5 mM MgCl2, 0.05 mg/ml BSA, 0.05 mg/ml poly(dIdC) (from 5x buffer); 50 ng Cy5 DNA in 20 uL; 20 min at 30 C; settings: protein: recombinant; tags: C-terminal His6; chain copies: 2; label: 5' Cy5

Molecule: P-yisI probe
Kd [1]: 2.5 nM

stoichiometry N [2]: 2
Molecule: His-tagged YvmB protein (MarR-like regulator YvmB, renamed PchR) (natural protein)

B1: P1 probe (yvmB-yvmC intergenic, palindrome I) (dsDNA)
DNA 1: TTCCAAATGTTTTTTAAGATTTTAATAATCATTTTCAATACCCATATCATGATAAATGTTTACTAGTAAACATTAGTCATTTTATCCCTTTTCCTTCCAAACGTCAATAT
DNA 2: ATATTGACGTTTGGAAGGAAAAGGGATAAAATGACTAATGTTTACTAGTAAACATTTATCATGATATGGGTATTGAAAATGATTATTAAAATCTTAAAAAACATTTGGAA
Kd (YvmB-His6 (PchR) [3]): 5 nM

B2: P2 probe (yvmB-yvmC intergenic, palindrome II) (dsDNA)
DNA 1: CCAACAATTGACAACGAAAACAAGAAAAGATAAAATAAAATTGTTCACCAGTAAACGATTTGTTTTATTGTTTCATCGTAAACTATTATTCCTAAGAAAGAAGGTAGCCT
DNA 2: AGGCTACCTTCTTTCTTAGGAATAATAGTTTACGATGAAACAATAAAACAAATCGTTTACTGGTGAACAATTTTATTTTATCTTTTCTTGTTTTCGTTGTCAATTGTTGG
binding result (YvmB-His6 (PchR) [4]): binds
